Results reported in the supplement of paper PMC11246515.
± gives the standard deviation of the averaged measurements.

Assay: total protein half-life in vivo (active degradation + dilution); higher = more stable protein
[1] = E. coli NCM3722 delta-clpP delta-lon delta-hslV, growth: N-lim chemostat, doubling time 6 h
[2] = E. coli NCM3722 delta-clpP, growth: N-lim chemostat, doubling time 6 h
[3] = E. coli NCM3722 delta-hslV, growth: N-lim chemostat, doubling time 6 h
[4] = E. coli NCM3722 delta-lon, growth: N-lim chemostat, doubling time 6 h
[5] = E. coli NCM3722 delta-smpB, growth: N-lim chemostat, doubling time 6 h
[6] = wild type E. coli NCM3722, growth: C-lim chemostat, doubling time 6 h
[7] = wild type E. coli NCM3722, growth: C-lim chemostat, doubling time 12 h
[8] = wild type E. coli NCM3722, growth: N-lim chemostat, doubling time 6 h
[9] = wild type E. coli NCM3722, growth: N-lim chemostat, doubling time 12 h
[10] = wild type E. coli NCM3722, growth: P-lim chemostat, doubling time 6 h
[11] = wild type E. coli NCM3722, growth: P-lim chemostat, doubling time 12 h
[12] = wild type E. coli NCM3722, growth: C-lim chemostat, doubling time 3 h

Row | Sequence | total protein half-life in vivo [1] | total protein half-life in vivo [2] | total protein half-life in vivo [3] | total protein half-life in vivo [4] | total protein half-life in vivo [5] | total protein half-life in vivo [6] | total protein half-life in vivo [7] | total protein half-life in vivo [8] | total protein half-life in vivo [9] | total protein half-life in vivo [10] | total protein half-life in vivo [11] | total protein half-life in vivo [12]
1 | MNNNLQRDAIAAAIDVLNEERVIAYPTEAVFGVGCDPDSETAVMRLLELKQRPVDKGLILIAANYEQLKPYIDDTMLTDVQRETIFSRWPGPVTFVFPAPATTPRWLTGRFDSLAVRVTDHPLVVALCQAYGKPLVSTSANLSGLPPCRTVDEVRAQFGAAFPVVPGETGGRLNPSEIRDALTGELFRQG | 4.72 ± 0.33 h | 4.4 ± 0.6 h | 4.12 ± 0.43 h | 5.29 ± 0.27 h | 3.89 ± 0.05 h | 5.61 ± 0.47 h | 9.17 ± 0.24 h | 4.08 ± 0.38 h | 5.63 ± 1.6 h | 5.25 ± 0.24 h | 11 ± 1.6 h | –
2 | MNNNTTAPTYTLRGLQLIGWRDMQHALDYLFADGQLKQGTLVAINAEKMLTIEDNAEVRELINAAEFKYADGISVVRSVRKKYPQAQVSRVAGADLWEELMARAGKEGTPVFLVGGKPEVLAQTEAKLRNQWNVNIVGSQDGYFKPEQRQALFERIHASGAQIVTVAMGSPKQEIIMRDCRLVHPDALYMGVGGTYDVFTGHVKRAPKIWQTLGLEWLYRLLSQPSRIKRQLRLLRYLRWHYTGNL | 6.19 ± 0.52 h | 6.04 ± 0.25 h | 6.18 ± 0.083 h | 7.03 ± 0.76 h | 6.88 ± 0.092 h | 5.84 ± 0.15 h | 12.2 ± 1.7 h | 6.58 ± 0.62 h | 12.6 ± 0.13 h | 5.76 ± 0.52 h | 13.4 ± 1.2 h | 3.045 ± 0.02 h
3 | MNNSINHKFHHISRAEYQELLAVSRGDAVADYIIDNVSILDLINGGEISGPIVIKGRYIAGVGAEYTDAPALQRIDARGATAVPGFIDAHLHIESSMMTPVTFETATLPRGLTTVICDPHEIVNVMGEAGFAWFARCAEQARQNQYLQVSSCVPALEGCDVNGASFTLEQMLAWRDHPQVTGLAEMMDYPGVISGQNALLDKLDAFRHLTLDGHCPGLGGKELNAYITAGIENCHESYQLEEGRRKLQLGMSLMIREGSAARNLNALAPLINEFNSPQCMLCTDDRNPWEIAHEGHIDALIRRLIEQHNVPLHVAYRVASWSTARHFGLNHLGLLAPGKQADIVLLSDARKVTVQQVLVKGEPIDAQTLQAEESARLAQSAPPYGNTIARQPVSASDFALQFTPGKRYRVIDVIHNELITHSHSSVYSENGFDRDDVSFIAVLERYGQRLAPACGLLGGFGLNEGALAATVSHDSHNIVVIGRSAEEMALAVNQVIQDGGGLCVVRNGQVQSHLPLPIAGLMSTDTAQSLAEQIDALKAAARECGPLPDEPFIQMAFLSLPVIPALKLTSQGLFDGEKFAFTTLEVTE | 4.53 h | 3.24 ± 0.11 h | – | – | – | 3.19 ± 0.16 h | 4.26 ± 0.098 h | – | – | 3.61 ± 1.4 h | 4.14 ± 0.77 h | 2.16 ± 0.17 h
4 | MNPIAVTLLTGFLGAGKTTLLRHILNEQHGYKIAVIENEFGEVSVDDQLIGDRATQIKTLTNGCICCSRSNELEDALLDLLDNLDKGNIQFDRLVIECTGMADPGPIIQTFFSHEVLCQRYLLDGVIALVDAVHADEQMNQFTIAQSQVGYADRILLTKTDVAGEAEKLHERLARINARAPVYTVTHGDIDLGLLFNTNGFMLEENVVSTKPRFHFIADKQNDISSIVVELDYPVDISEVSRVMENLLLESADKLLRYKGMLWIDGEPNRLLFQGVQRLYSADWDRPWGDEKPHSTMVFIGIQLPEEEIRAAFAGLRK | 5.11 ± 1.4 h | 3.49 ± 0.12 h | 3.471 ± 0.032 h | 3.97 ± 0.38 h | 3.65 ± 0.28 h | 5.139 ± 0.017 h | 8.715 ± 0.082 h | 3.52 ± 0.3 h | 6.14 ± 0.095 h | 4.95 ± 0.4 h | 10 ± 0.33 h | 2.876 ± 0.022 h
5 | MNPLLTDSRRQALRSASHWYAVLSGERVSPQQEARWQQWYEQDQDNQWAWQQVENLRNQLGGVPGDVASRALHDTRLTRRHVMKGLLLLLGAGGGWQLWQSETGEGLRADYRTAKGTVSRQQLEDGSLLTLNTQSAADVRFDAHQRTVRLWYGEIAITTAKDALQRPFRVLTRQGQLTALGTEFTVRQQDNFTQLDVQQHAVEVLLASAPAQKRIVNAGESLQFSASEFGAVKPLDDESTSWTKDILSFSDKPLGEVIATLTRYRNGVLRCDPAVAGLRLSGTFPLKNTDAILNVIAQTLPVKIQSITRYWINISPL | – | – | – | – | 0.672 h | – | – | – | – | – | – | –
6 | MNPQLLRVTNRIIERSRETRSAYLARIEQAKTSTVHRSQLACGNLAHGFAACQPEDKASLKSMLRNNIAIITSYNDMLSAHQPYEHYPEIIRKALHEANAVGQVAGGVPAMCDGVTQGQDGMELSLLSREVIAMSAAVGLSHNMFDGALFLGVCDKIVPGLTMAALSFGHLPAVFVPSGPMASGLPNKEKVRIRQLYAEGKVDRMALLESEAASYHAPGTCTFYGTANTNQMVVEFMGMQLPGSSFVHPDSPLRDALTAAAARQVTRMTGNGNEWMPIGKMIDEKVVVNGIVALLATGGSTNHTMHLVAMARAAGIQINWDDFSDLSDVVPLMARLYPNGPADINHFQAAGGVPVLVRELLKAGLLHEDVNTVAGFGLSRYTLEPWLNNGELDWREGAEKSLDSNVIASFEQPFSHHGGTKVLSGNLGRAVMKTSAVPVENQVIEAPAVVFESQHDVMPAFEAGLLDRDCVVVVRHQGPKANGMPELHKLMPPLGVLLDRCFKIALVTDGRLSGASGKVPSAIHVTPEAYDGGLLAKVRDGDIIRVNGQTGELTLLVDEAELAAREPHIPDLSASRVGTGRELFSALREKLSGAEQGATCITF [P0ADF6] | 3.58 ± 0.62 h | 3.24 h | 3.51 ± 0.99 h | 3.46 h | 2.97 ± 0.12 h | – | 8.61 h | 2.98 ± 0.2 h | 4.531 ± 0.012 h | 5.33 ± 0.3 h | 9.86 ± 0.35 h | 3.07 ± 0.33 h
